This assay addresses T1, helicase and C-terminal regulatory domains of human RIG-I (helicase-CTD; residues 230–925) (human, UniProt O95786 230-925).
T1 sequence (looked up): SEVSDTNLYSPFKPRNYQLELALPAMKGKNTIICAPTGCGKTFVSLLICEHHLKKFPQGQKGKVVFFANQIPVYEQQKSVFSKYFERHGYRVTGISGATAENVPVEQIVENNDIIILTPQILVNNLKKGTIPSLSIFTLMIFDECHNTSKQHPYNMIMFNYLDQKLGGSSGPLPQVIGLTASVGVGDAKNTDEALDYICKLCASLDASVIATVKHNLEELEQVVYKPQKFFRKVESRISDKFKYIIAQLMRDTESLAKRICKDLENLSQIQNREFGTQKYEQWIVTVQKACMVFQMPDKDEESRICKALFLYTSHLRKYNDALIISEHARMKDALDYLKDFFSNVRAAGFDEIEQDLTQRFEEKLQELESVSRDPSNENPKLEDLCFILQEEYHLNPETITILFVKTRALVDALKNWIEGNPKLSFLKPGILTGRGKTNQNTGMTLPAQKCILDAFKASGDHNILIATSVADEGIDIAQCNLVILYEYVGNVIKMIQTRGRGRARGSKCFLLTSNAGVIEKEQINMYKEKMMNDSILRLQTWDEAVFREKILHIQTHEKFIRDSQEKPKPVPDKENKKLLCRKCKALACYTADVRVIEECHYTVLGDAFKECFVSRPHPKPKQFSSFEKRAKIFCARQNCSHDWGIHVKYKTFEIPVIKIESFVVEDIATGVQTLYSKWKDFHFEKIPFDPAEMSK
Description: NMR titration.

B1: second CARD of human RIG-I (CARD2; residues 95–190) (domain or fragment, UniProt O95786 95-190, looked up)
chain: KKIEKLEEYRLLLKRLQPEFKTRIIPTDIISDLSECLINQECEEILQICSTKGMMAGAEKLVECLLRSDKENWPKTLKLALEKERNKFSELWIVEK
The Kd is the equilibrium constant for the complex coming apart. A lower Kd goes with a tighter complex. Molecule B1 registered a Kd of 1660 ± 1300 nM.

(Values after paper PMC3625992 (Structure (London, England : 1993), 2012).)
